Data published in paper PMC7027902.

Tests used:
[1] = biological target: soluble biotinylated cognate peptide-MHC of the DMF5 TCR; assay: BLI; Octet RED96; biotinylated pMHC (5 µg/mL) loaded on streptavidin tips; TCR in twofold serial dilutions from 200 nM, 900 s association, 600 s dissociation; PBS with kinetic buffer; 1:1 binding model
[2] = biological target: soluble biotinylated cognate peptide-MHC of the A6 TCR; assay: as above

Row | Substance | Kd [1] [nM] | koff [1] [s⁻¹] | Kd [2] [nM] | koff [2] [s⁻¹]
1 | wild-type DMF5 TCR (soluble α/β heterodimer) | 31.6 | 7.4e-05 | – | –
2 | wild-type high-affinity A6 TCR (soluble α/β heterodimer) | – | – | 8.3 | 0.000416
